These results are taken from IntAct's records for PubMed 35512704.

The chains are these.
B1: Speckle-type POZ protein (Homo sapiens), O43791 (parent)
chain: MSRVPSPPPPAEMSSGPVAESWCYTQIKVVKFSYMWTINNFSFCREEMGEVIKSSTFSSGANDKLKWCLRVNPKGLDEESKDYLSLYLLLVSCPKSEVRAKFKFSILNAKGEETKAMESQRAYRFVQGKDWGFKKFIRRDFLLDEANGLLPDDKLTLFCEVSVVQDSVNISGQNTMNMVKVPECRLADELGGLWENSRFTDCCLCVAGQEFQAHKAILAARSPVFSAMFEHEMEESKKNRVEINDVEPEVFKEMMCFIYTGKAPNLDKMADDLLAAADKYALERLKVMCEDALCSNLSVENAAEILILADLHSADQLKTQAVDFINYHASDVLETSGWKSMVVSHPHLVAEAYRSLASAQCPFLGPPRKRLKQS
partner: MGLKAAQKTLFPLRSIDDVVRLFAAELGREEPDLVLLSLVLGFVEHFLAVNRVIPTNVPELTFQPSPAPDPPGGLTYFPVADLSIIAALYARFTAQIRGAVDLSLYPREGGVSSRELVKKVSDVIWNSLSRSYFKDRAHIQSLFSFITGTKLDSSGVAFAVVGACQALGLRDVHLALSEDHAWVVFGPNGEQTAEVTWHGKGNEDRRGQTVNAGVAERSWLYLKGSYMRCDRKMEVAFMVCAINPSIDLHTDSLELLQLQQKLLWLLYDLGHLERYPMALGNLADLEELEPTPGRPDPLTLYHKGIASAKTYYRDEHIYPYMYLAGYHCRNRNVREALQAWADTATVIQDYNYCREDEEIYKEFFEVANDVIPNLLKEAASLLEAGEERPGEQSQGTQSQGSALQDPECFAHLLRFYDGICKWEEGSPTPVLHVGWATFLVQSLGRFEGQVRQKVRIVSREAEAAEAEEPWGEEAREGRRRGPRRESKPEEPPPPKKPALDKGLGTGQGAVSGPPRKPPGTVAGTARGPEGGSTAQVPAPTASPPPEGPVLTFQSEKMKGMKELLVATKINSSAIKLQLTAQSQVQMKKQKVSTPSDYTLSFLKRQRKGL
B2: Speckle-type POZ protein (Homo sapiens), O43791 (parent)
chain: B1 chain
partner: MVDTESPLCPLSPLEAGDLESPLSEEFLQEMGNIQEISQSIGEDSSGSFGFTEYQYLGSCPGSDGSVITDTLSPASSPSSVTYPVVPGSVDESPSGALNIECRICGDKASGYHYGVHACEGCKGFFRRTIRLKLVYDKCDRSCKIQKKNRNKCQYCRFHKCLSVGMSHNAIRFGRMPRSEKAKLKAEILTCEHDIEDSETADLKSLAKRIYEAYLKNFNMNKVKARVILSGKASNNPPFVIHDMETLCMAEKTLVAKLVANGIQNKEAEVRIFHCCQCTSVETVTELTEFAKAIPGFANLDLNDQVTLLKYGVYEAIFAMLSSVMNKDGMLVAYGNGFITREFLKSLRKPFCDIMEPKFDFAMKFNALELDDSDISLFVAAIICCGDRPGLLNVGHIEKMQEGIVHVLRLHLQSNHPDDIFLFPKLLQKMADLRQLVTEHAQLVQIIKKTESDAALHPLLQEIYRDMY
B3: Speckle-type POZ protein (Homo sapiens), O43791 (parent)
chain: B1 chain
partner: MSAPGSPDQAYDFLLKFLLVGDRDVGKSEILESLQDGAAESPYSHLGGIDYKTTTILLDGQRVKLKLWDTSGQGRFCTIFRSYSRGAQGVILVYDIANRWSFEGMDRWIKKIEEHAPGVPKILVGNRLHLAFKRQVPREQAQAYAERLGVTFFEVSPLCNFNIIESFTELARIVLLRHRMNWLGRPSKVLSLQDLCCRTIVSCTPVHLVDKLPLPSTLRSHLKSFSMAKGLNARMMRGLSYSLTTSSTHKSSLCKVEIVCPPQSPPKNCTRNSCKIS
B4: Speckle-type POZ protein (Homo sapiens), O43791 (parent)
chain: B1 chain
partner: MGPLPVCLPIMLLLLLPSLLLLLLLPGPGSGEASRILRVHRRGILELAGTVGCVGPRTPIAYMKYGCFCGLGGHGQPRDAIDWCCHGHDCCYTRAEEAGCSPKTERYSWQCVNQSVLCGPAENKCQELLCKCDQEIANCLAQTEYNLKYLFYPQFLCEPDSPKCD
B5: Speckle-type POZ protein (Homo sapiens), O43791 (parent)
chain: B1 chain
partner: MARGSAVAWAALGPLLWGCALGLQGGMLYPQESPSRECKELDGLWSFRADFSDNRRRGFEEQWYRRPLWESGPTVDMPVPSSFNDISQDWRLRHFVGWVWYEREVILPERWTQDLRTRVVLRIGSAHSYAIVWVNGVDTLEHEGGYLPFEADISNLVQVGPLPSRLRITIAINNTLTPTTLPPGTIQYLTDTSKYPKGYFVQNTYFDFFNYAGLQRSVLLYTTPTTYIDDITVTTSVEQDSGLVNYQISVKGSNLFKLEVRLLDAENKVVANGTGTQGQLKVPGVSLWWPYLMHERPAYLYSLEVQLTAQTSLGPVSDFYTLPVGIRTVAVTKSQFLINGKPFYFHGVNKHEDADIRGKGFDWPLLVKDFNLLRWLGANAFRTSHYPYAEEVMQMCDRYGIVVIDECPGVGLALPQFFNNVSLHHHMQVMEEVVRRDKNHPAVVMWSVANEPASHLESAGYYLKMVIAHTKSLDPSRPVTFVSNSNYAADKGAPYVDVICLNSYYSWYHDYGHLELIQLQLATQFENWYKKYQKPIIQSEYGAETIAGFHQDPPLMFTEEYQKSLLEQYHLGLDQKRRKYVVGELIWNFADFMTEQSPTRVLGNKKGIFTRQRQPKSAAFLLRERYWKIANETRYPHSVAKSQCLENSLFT
B6: Speckle-type POZ protein (Homo sapiens), O43791 (parent)
chain: B1 chain
partner: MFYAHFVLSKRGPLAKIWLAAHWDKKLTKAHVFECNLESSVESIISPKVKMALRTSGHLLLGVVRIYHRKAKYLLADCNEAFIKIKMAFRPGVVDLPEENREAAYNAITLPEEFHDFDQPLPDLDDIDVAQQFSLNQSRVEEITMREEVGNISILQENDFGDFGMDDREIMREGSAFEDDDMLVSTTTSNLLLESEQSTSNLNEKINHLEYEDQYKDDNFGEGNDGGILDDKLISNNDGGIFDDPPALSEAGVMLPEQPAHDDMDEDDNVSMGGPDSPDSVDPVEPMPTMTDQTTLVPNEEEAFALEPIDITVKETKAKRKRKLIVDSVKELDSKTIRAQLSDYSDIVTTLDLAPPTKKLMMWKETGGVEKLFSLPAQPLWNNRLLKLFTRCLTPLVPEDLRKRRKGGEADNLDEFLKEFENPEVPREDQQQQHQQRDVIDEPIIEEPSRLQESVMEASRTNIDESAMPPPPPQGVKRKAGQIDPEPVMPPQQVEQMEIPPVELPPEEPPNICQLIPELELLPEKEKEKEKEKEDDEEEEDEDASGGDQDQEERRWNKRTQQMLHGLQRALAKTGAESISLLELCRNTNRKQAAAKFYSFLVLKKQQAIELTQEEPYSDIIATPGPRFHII

The first assay covers variants of B1. The note with it: with men1_human MEN1, O00255.
Consider Y87C, for which the “effect of a mutation on the interaction” value is listed as “with no effect”.

In another assay the parent is B1. The note with it: with men1_human MEN1, O00255. This is another data set of the same source.
As for F102C, the “effect of a mutation on the interaction” value is “with no effect”.

Variants of B1 are the subject of the next assay. The note with it: with men1_human MEN1, O00255. This is another data set of the same source.
For F133L, the “effect of a mutation on the interaction” value is “with no effect”.

The next assay covers variants of B1. Particulars: with men1_human MEN1, O00255. This is another data set of the same source.
Regarding F133V, the “effect of a mutation on the interaction” value is “with no effect”.

Variants of B2 are the subject of the next assay. Particulars: with ppara_human PPARA.
F133L: the “effect of a mutation on the interaction” value is reported as “with no effect”.

Variants of B2 are the subject of another assay. Particulars: with ppara_human PPARA. The source holds these as a separate data set.
F133V: the “effect of a mutation on the interaction” value is “with no effect”.

A further assay covers variants of B2. The note with it: with ppara_human PPARA. This is another data set of the same source.
Take Y87C: the “effect of a mutation on the interaction” value is recorded as “with no effect”.

Another assay covers variants of B2. Particulars: with ppara_human PPARA. The source holds these as a separate data set.
Consider F102C, for which the “effect of a mutation on the interaction” value was “with no effect”.

Variants of B3 are the subject of the next assay. Particulars: with rb40a_human RAB40A.
Take F102C: the “effect of a mutation on the interaction” value is listed as “with no effect”.

Variants of B3 are the subject of the next assay. Particulars: with rb40a_human RAB40A. The source holds these as a separate data set.
As to Y87C, the “effect of a mutation on the interaction” value is on record as “with no effect”.

Variants of B3 are the subject of a further assay. Particulars: with rb40a_human RAB40A. This is another data set of the same source.
Turning to F133L, the “effect of a mutation on the interaction” value was “with no effect”.

Variants of B3 are the subject of another assay. The note with it: with rb40a_human RAB40A. This is another data set of the same source.
For the variant F133V, the “effect of a mutation on the interaction” value is recorded as “with no effect”.

In a further assay the parent is B4. The note with it: with pa2gx_human PLA2G10, O15496.
As for Y87C, the “effect of a mutation on the interaction” value is “with no effect”.

The variants in a further assay derive from B4. The note with it: with pa2gx_human PLA2G10, O15496. This is another data set of the same source.
As for F133V, the “effect of a mutation on the interaction” value was “with no effect”.

Another assay covers variants of B4. The note with it: with pa2gx_human PLA2G10, O15496. The source holds these as a separate data set.
For F133L, the “effect of a mutation on the interaction” value was “with no effect”.

The next assay covers variants of B4. Particulars: with pa2gx_human PLA2G10, O15496. This is another data set of the same source.
Consider F102C, for which the “effect of a mutation on the interaction” value is on record as “with no effect”.

The variants in a further assay derive from B5. Particulars: with bglr_human GUSB.
For the variant F133L, the “effect of a mutation on the interaction” value is “with no effect”.

Variants of B5 are the subject of a further assay. Particulars: with bglr_human GUSB. This is another data set of the same source.
Turning to F133V, the “effect of a mutation on the interaction” value is recorded as “with no effect”.

Variants of B5 are the subject of a further assay. The note with it: with bglr_human GUSB. This is another data set of the same source.
Take Y87C: the “effect of a mutation on the interaction” value was “with no effect”.

In a further assay the parent is B6. Particulars: with rad21_human RAD21, O60216.
Turning to Y87C, the “effect of a mutation on the interaction” value is “with no effect”.

In the next assay the parent is B6. The note with it: with rad21_human RAD21, O60216. This is another data set of the same source.
In the case of F102C, the “effect of a mutation on the interaction” value is recorded as “with no effect”.

A further assay covers variants of B6. Particulars: with rad21_human RAD21, O60216. This is another data set of the same source.
On to F133L, for which the “effect of a mutation on the interaction” value was “with no effect”.

The variants in the next assay derive from B6. Particulars: with rad21_human RAD21, O60216. The source holds these as a separate data set.
Regarding F133V, the “effect of a mutation on the interaction” value is recorded as “with no effect”.
